For one molecule, EC50 results are on record in US20250163155A1 (Bristol-Myers Squibb, published 2025).

The target in the test is T1, cynomolgus LAG-3 (cynomolgus monkey).
T1 construct: whole, on cells; also called cynomolgus LAG-3 on transfected CHO cells
Nature of the test: flow cytometry on transfected CHO cells and activated cynomolgus T cells. A general note: Flow cytometry measures light scatter and fluorescence of single cells or particles in a stream.

B1: BMS-986016 (antibody, human IgG4 S228P, kappa, V domains shown)
VH: QVQLQQWGAGLLKPSETLSLTCAVYGGSFSDYYWNWIRQPPGKGLEWIGEINHRGSTNSNPSLKSRVTLSLDTSKNQFSLKLRSVTAADTAVYYCAFGYSDYEYNWFDPWGQGTLVTVSS
VL: EIVLTQSPATLSLSPGERATLSCRASQSISSYLAWYQQKPGQAPRLLIYDASNRATGIPARFSGSGSGTDFTLTISSLEPEDFAVYYCQQRSNWPLTFGQGTNLEIKR
notes: also called anti-LAG-3 antibody
The EC50 is the concentration needed to bring the measured effect to its halfway point. High values mean a need for much substance, low ones an effect from little substance. Turning to B1, the EC50 was 21.5 to 34.3 nM.
